Literature values as cited in PMC2990782 (Gene therapy, 2010).

Conditions: i.v. dosed polyplex; ref [22]

Substance: PEG-Cys-Trp-Lys18
- time to complete metabolism of plasmid DNA in the circulation: ≤ 3 min
